Publication PMC3069016 (Molecular Biology of the Cell, 2011)

Target: T1, Csn10-CBP-A2 (S. cerevisiae, UniProt Q12348 1-645)
T1 sequence (looked up): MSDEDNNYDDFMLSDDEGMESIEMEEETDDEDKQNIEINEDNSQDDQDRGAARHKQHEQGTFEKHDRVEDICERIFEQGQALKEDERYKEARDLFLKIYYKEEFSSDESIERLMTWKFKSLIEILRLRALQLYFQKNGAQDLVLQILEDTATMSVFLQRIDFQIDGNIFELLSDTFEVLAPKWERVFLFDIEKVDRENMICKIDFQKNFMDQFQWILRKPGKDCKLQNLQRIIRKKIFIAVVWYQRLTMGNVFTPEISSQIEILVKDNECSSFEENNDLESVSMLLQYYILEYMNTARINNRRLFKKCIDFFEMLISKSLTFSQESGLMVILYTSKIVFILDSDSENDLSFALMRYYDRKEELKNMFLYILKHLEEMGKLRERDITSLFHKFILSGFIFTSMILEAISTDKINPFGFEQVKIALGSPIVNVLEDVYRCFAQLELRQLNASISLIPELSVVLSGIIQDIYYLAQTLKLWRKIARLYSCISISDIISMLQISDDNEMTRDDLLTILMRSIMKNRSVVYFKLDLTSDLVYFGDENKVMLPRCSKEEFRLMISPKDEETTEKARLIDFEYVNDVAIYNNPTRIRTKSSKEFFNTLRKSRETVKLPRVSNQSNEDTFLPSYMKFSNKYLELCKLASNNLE
Experiment: affinity purification with mass spectrometry

B1: Rpn5 (natural protein, S. cerevisiae, UniProt Q12250 1-445, looked up)
chain: MSRDAPIKADKDYSQILKEEFPKIDSLAQNDCNSALDQLLVLEKKTRQASDLASSKEVLAKIVDLLASRNKWDDLNEQLTLLSKKHGQLKLSIQYMIQKVMEYLKSSKSLDLNTRISVIETIRVVTENKIFVEVERARVTKDLVEIKKEEGKIDEAADILCELQVETYGSMEMSEKIQFILEQMELSILKGDYSQATVLSRKILKKTFKNPKYESLKLEYYNLLVKISLHKREYLEVAQYLQEIYQTDAIKSDEAKWKPVLSHIVYFLVLSPYGNLQNDLIHKIQNDNNLKKLESQESLVKLFTTNELMRWPIVQKTYEPVLNEDDLAFGGEANKHHWEDLQKRVIEHNLRVISEYYSRITLLRLNELLDLTESQTETYISDLVNQGIIYAKVNRPAKIVNFEKPKNSSQLLNEWSHNVDELLEHIETIGHLITKEEIMHGLQAK
B1 was tested, and the “stoichiometry N” value was 1.
